# Results reported in patent publication US20200197498A1 (OHIO STATE INNOVATION FOUNDATION, published 2020).
# Target: T1, recombinant hPD-L1 ectodomain (human, UniProt Q9NZQ7 19-238)
# T1 construct: extracellular domain; Immobilised on a CM5 chip by amine coupling (2345 RU); also called rhPD-L1; rPD-L1
# Assay: SPR (Biacore T200), rhPD-L1 immobilised on CM5 chip, 1 µM peptide injected
# T1 sequence (Q9NZQ7 19-238): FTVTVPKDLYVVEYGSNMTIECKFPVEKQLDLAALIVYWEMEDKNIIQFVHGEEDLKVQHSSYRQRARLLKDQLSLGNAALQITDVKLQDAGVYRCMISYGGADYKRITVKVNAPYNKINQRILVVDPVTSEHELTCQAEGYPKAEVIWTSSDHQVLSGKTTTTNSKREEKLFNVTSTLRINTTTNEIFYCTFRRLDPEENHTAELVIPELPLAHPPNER
Binder,binding result,SPR response [RU]
Ac-KLAAFPEDRSQPGQDCRFR-NH2 (also called acetylated peptide) [AC-PD-1 (45-64)],binds,–
Ac-DFHMSVVRARRNDSGTYL-NH2 (also called acetylated peptide) [AC-PD-1 (73-90)],binds,–
Ac-GAISLAPKAQIKESLRAEL-NH2 (also called acetylated peptide) [AC-PD-1 (92-110)],binds,–
H-DFHMSVVRARRNDSGTYL-NH2 (Free peptide (H2N- at the N-terminus); also called free peptide) [PD-1 (73-90)],binds,–
H-KLAAFPEDRSQPGQDCRFR-NH2 (Free peptide (H2N- at the N-terminus); also called free peptide; 46-64) [PD-1 (45-64)],binds,–
H-GAISLAPKAQIKESLRAEL-NH2 (Free peptide (H2N- at the N-terminus); also called free peptide) [PD-1 (92-110)],binds,–
MVF-HER-2(266-296) (Negative control peptide in SPR) peptide: KLLSLIKGVIVHRLEGVEGPSLLHCPALVTYNTDTFESMPNPEGRYTFGASCV,–,20
